IntAct's records for PubMed 31515488

B1: Peroxisomal biogenesis factor 3 (Homo sapiens), P56589 (parent)
chain: MLRSVWNFLKRHKKKCIFLGTVLGGVYILGKYGQKKIREIQEREAAEYIAQARRQYHFESNQRTCNMTVLSMLPTLREALMQQLNSESLTALLKNRPSNKLEIWEDLKIISFTRSTVAVYSTCMLVVLLRVQLNIIGGYIYLDNAAVGKNGTTILAPPDVQQQYLSSIQHLLGDGLTELITVIKQAVQKVLGSVSLKHSLSLLDLEQKLKEIRNLVEQHKSSSWINKDGSKPLLCHYMMPDEETPLAVQACGLSPRDITTIKLLNETRDMLESPDFSTVLNTCLNRGFSRLLDNMAEFFRPTEQDLQHGNSMNSLSSVSLPLAKIIPIVNGQIHSVCSETPSHFVQDLLTMEQVKDFAANVYEAFSTPQQLEK
partner: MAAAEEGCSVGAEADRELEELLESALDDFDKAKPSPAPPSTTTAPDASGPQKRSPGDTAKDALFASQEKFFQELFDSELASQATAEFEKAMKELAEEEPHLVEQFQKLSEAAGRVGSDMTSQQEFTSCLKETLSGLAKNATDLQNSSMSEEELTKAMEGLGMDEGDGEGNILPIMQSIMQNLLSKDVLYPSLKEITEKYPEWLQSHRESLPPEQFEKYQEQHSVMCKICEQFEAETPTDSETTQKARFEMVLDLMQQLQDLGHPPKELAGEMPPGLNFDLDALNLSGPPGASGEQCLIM
B2: EGF-containing fibulin-like extracellular matrix protein 1 (Homo sapiens), Q12805 (parent)
chain: MLKALFLTMLTLALVKSQDTEETITYTQCTDGYEWDPVRQQCKDIDECDIVPDACKGGMKCVNHYGGYLCLPKTAQIIVNNEQPQQETQPAEGTSGATTGVVAASSMATSGVLPGGGFVASAAAVAGPEMQTGRNNFVIRRNPADPQRIPSNPSHRIQCAAGYEQSEHNVCQDIDECTAGTHNCRADQVCINLRGSFACQCPPGYQKRGEQCVDIDECTIPPYCHQRCVNTPGSFYCQCSPGFQLAANNYTCVDINECDASNQCAQQCYNILGSFICQCNQGYELSSDRLNCEDIDECRTSSYLCQYQCVNEPGKFSCMCPQGYQVVRSRTCQDINECETTNECREDEMCWNYHGGFRCYPRNPCQDPYILTPENRCVCPVSNAMCRELPQSIVYKYMSIRSDRSVPSDIFQIQATTIYANTINTFRIKSGNENGEFYLRQTSPVSAMLVLVKSLSGPREHIVDLEMLTVSSIGTFRTSSVLRLTIIVGPFSF
B3: Centrosomal protein of 55 kDa (Homo sapiens), Q53EZ4 (parent)
chain: MSSRSTKDLIKSKWGSKPSNSKSETTLEKLKGEIAHLKTSVDEITSGKGKLTDKERHRLLEKIRVLEAEKEKNAYQLTEKDKEIQRLRDQLKARYSTTTLLEQLEETTREGERREQVLKALSEEKDVLKQQLSAATSRIAELESKTNTLRLSQTVAPNCFNSSINNIHEMEIQLKDALEKNQQWLVYDQQREVYVKGLLAKIFELEKKTETAAHSLPQQTKKPESEGYLQEEKQKCYNDLLASAKKDLEVERQTITQLSFELSEFRRKYEETQKEVHNLNQLLYSQRRADVQHLEDDRHKTEKIQKLREENDIARGKLEEEKKRSEELLSQVQFLYTSLLKQQEEQTRVALLEQQMQACTLDFENEKLDRQHVQHQLHVILKELRKARNQITQLESLKQLHEFAITEPLVTFQGETENREKVAASPKSPTAALNESLVECPKCNIQYPATEHRDLLVHVEYCSK
partner: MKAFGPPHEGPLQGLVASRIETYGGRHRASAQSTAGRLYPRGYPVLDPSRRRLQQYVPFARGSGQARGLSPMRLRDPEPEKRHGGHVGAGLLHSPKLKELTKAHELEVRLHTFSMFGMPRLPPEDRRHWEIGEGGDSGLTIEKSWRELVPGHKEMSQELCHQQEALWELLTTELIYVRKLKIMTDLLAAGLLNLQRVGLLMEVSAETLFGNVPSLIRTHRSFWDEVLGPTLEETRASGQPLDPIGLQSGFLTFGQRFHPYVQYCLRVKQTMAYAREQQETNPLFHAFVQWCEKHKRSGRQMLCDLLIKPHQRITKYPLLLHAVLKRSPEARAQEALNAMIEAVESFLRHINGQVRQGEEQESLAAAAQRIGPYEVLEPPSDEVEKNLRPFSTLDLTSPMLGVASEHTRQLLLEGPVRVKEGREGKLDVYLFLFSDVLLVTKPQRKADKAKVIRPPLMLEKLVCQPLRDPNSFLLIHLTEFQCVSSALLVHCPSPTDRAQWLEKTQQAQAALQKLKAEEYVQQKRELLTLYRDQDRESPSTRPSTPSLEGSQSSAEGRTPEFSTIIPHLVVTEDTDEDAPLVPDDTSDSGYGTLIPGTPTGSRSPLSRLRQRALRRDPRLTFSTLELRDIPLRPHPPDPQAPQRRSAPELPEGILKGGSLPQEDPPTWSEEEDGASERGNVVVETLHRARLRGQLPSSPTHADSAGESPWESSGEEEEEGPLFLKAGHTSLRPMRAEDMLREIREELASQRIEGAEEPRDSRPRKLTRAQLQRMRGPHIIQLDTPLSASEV
B4: LIM/homeobox protein Lhx4 (Homo sapiens), Q969G2 (parent)
chain: MMQSATVPAEGAVKGLPEMLGVPMQQIPQCAGCNQHILDKFILKVLDRHWHSSCLKCADCQMQLADRCFSRAGSVYCKEDFFKRFGTKCTACQQGIPPTQVVRKAQDFVYHLHCFACIICNRQLATGDEFYLMEDGRLVCKEDYETAKQNDDSEAGAKRPRTTITAKQLETLKNAYKNSPKPARHVREQLSSETGLDMRVVQVWFQNRRAKEKRLKKDAGRHRWGQFYKSVKRSRGSSKQEKESSAEDCGVSDSELSFREDQILSELGHTNRIYGNVGDVTGGQLMNGSFSMDGTGQSYQDLRDGSPYGIPQSPSSISSLPSHAPLLNGLDYTVDSNLGIIAHAGQGVSQTLRAMAGGPTSDISTGSSVGYPDFPTSPGSWLDEMDHPPF
partner: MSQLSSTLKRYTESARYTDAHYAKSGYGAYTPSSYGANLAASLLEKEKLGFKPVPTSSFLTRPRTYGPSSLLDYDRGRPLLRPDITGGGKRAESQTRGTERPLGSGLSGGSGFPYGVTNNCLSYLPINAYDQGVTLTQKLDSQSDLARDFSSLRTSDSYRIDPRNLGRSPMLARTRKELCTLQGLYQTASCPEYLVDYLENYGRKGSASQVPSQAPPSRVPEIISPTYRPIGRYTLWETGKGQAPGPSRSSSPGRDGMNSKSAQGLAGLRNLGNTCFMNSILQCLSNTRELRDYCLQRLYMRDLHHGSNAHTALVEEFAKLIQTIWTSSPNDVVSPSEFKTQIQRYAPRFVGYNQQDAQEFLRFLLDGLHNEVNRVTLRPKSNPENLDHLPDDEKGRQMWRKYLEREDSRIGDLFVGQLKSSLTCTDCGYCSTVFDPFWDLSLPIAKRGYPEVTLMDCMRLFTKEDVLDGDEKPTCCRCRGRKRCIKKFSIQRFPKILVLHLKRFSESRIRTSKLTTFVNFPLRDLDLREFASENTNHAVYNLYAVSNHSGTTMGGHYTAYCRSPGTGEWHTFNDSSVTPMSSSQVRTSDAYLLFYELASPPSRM

Variants of: B1
Details: with pex19_human PEX19, P40855

| Variant | effect of a mutation on the interaction |
| --- | --- |
| Q82R | with no effect |
| D347Y | with no effect |

Variants of: B2
Details: with sgta_human SGTA

| Variant | effect of a mutation on the interaction |
| --- | --- |
| D49A | with no effect |

Variants of: B2
Details: with ric8a_human RIC8A

| Variant | effect of a mutation on the interaction |
| --- | --- |
| D49A | with no effect |

Variants of: B3
Details: with pkhg6_human PLEKHG6, Q3KR16

| Variant | effect of a mutation on the interaction |
| --- | --- |
| L59F | with no effect |

Variants of: B4
Details: with ubp2_human USP2, O75604

| Variant | effect of a mutation on the interaction |
| --- | --- |
| N328S | with no effect |
